Literature values in paper PMC6627431.

Legend:
KV1.1 = KV1.1 (UniProt Q09470)
KV1.2 = KV1.2 (UniProt P16389)
KV1.3 = KV1.3 (UniProt P22001)
Chain of UniProt P22001 (P22001 whole entry): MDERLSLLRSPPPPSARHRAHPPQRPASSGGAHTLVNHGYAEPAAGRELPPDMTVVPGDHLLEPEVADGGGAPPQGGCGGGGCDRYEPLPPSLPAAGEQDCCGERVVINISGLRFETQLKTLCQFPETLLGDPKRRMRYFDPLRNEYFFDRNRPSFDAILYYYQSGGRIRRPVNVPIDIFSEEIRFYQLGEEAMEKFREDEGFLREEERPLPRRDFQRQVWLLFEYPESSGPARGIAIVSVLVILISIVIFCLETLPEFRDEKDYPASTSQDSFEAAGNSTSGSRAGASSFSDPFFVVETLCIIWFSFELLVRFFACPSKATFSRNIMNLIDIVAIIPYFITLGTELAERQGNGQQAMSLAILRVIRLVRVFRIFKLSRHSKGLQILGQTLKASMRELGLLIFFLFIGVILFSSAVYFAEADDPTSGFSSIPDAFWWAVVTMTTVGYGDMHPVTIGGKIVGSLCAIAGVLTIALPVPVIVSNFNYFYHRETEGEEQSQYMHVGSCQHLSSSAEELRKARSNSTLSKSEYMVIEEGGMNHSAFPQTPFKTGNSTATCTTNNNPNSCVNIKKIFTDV

Chain of UniProt Q09470 (Q09470 whole entry): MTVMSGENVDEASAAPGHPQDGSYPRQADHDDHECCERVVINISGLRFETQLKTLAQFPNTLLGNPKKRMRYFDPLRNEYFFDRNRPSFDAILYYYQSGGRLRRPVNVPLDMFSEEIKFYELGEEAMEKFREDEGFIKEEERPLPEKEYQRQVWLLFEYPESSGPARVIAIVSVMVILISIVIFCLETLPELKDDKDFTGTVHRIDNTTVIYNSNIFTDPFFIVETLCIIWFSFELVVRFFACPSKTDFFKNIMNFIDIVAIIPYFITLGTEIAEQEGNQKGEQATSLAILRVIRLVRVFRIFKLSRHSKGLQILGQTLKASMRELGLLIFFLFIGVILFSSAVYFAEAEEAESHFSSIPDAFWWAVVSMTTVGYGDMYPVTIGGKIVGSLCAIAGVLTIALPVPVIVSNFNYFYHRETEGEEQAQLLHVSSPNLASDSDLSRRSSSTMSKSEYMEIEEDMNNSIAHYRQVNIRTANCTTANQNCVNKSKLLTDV
Chain of UniProt P16389 (P16389 whole entry): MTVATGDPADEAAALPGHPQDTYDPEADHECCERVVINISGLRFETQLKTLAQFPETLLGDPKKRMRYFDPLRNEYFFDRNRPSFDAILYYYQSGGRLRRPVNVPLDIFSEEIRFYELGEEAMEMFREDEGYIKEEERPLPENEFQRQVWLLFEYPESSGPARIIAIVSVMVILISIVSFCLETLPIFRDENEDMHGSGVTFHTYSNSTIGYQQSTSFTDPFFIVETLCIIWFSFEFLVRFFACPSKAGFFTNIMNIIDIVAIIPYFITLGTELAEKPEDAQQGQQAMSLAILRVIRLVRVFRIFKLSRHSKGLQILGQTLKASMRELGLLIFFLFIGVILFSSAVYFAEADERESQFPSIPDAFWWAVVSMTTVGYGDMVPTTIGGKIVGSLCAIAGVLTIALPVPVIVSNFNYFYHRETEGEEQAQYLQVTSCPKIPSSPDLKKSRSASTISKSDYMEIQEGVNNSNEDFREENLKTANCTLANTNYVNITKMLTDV

## BgK (from UniProt P29186)
KV1.1
  Kd: 6 nM
KV1.2
  Kd: 15 nM
KV1.3
  Kd: 10 nM
